# Measured values: paper PMC6026032 (Brain research, 2018)
# Residue numbers refer to the chain shown, from its start.
# B1: HA-tagged Cbln2 (wild type) (ligand, mouse, UniProt Q8BGU2 52-224, looked up)
# chain: QNDTEPIVLEGKCLVVCDSSPSGDGAVTSSLGISVRSGSAKVAFSATRSTNHEPSEMSNRTMTIYFDQVLVNIGNHFDLASSIFVAPRKGIYSFSFHVVKVYNRQTIQVSLMQNGYPVISAFAGDQDVTREAASNGVLLLMEREDKVHLKLERGNLMGGWKYSTFSGFLVFPL
# modifications: N-linked glycans at N53 and N110
# B2: HA-tagged Cbln2 N110Q (ligand, mouse, UniProt Q8BGU2 52-224, looked up)
# chain: B1 chain with N59Q
# modifications: N-linked glycan at N53 only (monoglycosylated)
# B3: HA-tagged Cbln2 N53Q (ligand, mouse, UniProt Q8BGU2 52-224, looked up)
# chain: B1 chain with N2Q
# modifications: N-linked glycan at N110 only (monoglycosylated)
# B4: HA-tagged Cbln1 (wild type) (ligand, mouse, UniProt Q9R171 22-193, looked up)
# chain: QNETEPIVLEGKCLVVCDSNPTSDPTGTALGISVRSGSAKVAFSAIRSTNHEPSEMSNRTMIIYFDQVLVNIGNNFDSERSTFIAPRKGIYSFNFHVVKVYNRQTIQVSLMLNGWPVISAFAGDQDVTREAASNGVLIQMEKGDRAYLKLERGNLMGGWKYSTFSGFLVFPL
# modifications: N-linked glycans at N23 and N79; sialylated
# B5: HA-tagged Cbln1 N79Q (ligand, mouse, UniProt Q9R171 22-193, looked up)
# chain: B4 chain with N58Q
# modifications: N-linked glycan at N23 only (monoglycosylated)
# B6: HA-tagged Cbln1 N23Q (ligand, mouse, UniProt Q9R171 22-193, looked up)
# chain: B4 chain with N2Q
# modifications: N-linked glycan at N79 only (monoglycosylated)
# B7: HA-tagged Cbln4 (wild type) (ligand, mouse, UniProt Q8BME9 25-198, looked up)
# chain: QNDTEPIVLEGKCLVVCDSNPATDSKGSSSSPLGISVRAANSKVAFSAVRSTNHEPSEMSNKTRIIYFDQILVNVGNFFTLESVFVAPRKGIYSFSFHVIKVYQSQTIQVNLMLNGKPVISAFAGDKDVTREAATNGVLLYLDKEDKVYLKLEKGNLLGGWQYSTFSGFLVFPL
# modifications: N-linked glycans at N26 and N85; sialylated
# B8: HA-tagged Cbln4 N85Q (ligand, mouse, UniProt Q8BME9 25-198, looked up)
# chain: B7 chain with N61Q
# modifications: N-linked glycan at N26 only (monoglycosylated)
# Biological target: the molecule itself
# Assay: native gel or EMSA
row,Protein,stoichiometry N
1,B1,6
2,B2,6
3,B3,6
4,B4,6
5,B5,6
6,B6,6
7,B7,6
8,B8,6
